Measured values from patent US8986954B2, “DNA encoding function modifying Nav1.7 antibodies” (UCB Pharma S.A., priority 2009, dated 2015).

Legend:
[1] = at best, in about 40% of patients (Dworkin, 2002); cited from earlier work
human Nav1.7 channel = target: T1, human Nav1.7 channel (Homo sapiens, UniProt Q15858); assay: PatchXpress h Nav1.7 assay (automated Patch Clamp, HEK cells); format: cell-based; settings: for dose dependence of inhibition of human Nav1.7 currents: recombinant human Nav1.7 in HEK cells, repeated voltage step protocol, end point
T1 construct: host or cells: HEK293
Method: Extracellular solution contained (in mM): 130 NaCl, 4 KCl, 1.5 CaCl2, 1 MgCl2, 30 glucose, 10 HEPES (pH 7.4 with Tris-Base, and 300 to 305 mOsmolar). Intracellular solution contained (in mM): 5 NaCl, 115 CsF, 20 CsCl, […], 10 EGTA free acid (pH 7.2 with CsOH, and 290 to 295 mOsmolar) and was either made fresh or kept frozen. Extracellular and intracellular solutions were filtered prior to use. Antibodies were directly diluted in extracellular solution and were freshly (no more than 15 min) prepared before transfer to a 96-well polypropylene compound plate (Sarsted, #83.1835.500). For the experiments using selective peptide, antibodies and peptides, at equal concentrations, were preincubated at least 30-min at 4° C. prior Patch Clamp experiments.
HEK293 cells stably expressing the human Nav1.7 channel (type IX voltage-gated sodium channel alpha subunit) were purchased from Upstate (Upstate, Millipore, cat.#CYL3011). Cells were cultured in T-75 (BD BioCoat™ Collagen I Cellware, Becton Dickinson Labware, Bedford, Mass., #356485) flasks coated with collagen type I using standard culture medium DMEM-F12 with-Glutamine (Invitrogen, #11320) containing 10% FBS (Lonza, #DE14-802F), 1% penicillin+streptomycin (Lonza, DE17-603E), 1% non essential amino acids (Lonza, BE13-114E) and 400 μg/ml G418 (GIBCO, #10131-027). Cells were plated at a density of 15,000 cells/cm2 or 8,000 cells/cm2 density for 2 or 3 days respectively before being used on PatchXpress® 7000A (Axon instrument, new part of MDS Analytical Technologies). Cells confluence never exceeded 90%. The day of the experiment, cells were harvested using Accumax (Sigma, A7089). Briefly, cells were washed twice in PBS (Lonza, #BE12-516F) without calcium and magnesium, and a 1:4 dilution of Accumax solution was added and incubated for 1.5 to 2-min at 37° C. DMEM-F12 with 15 mMHEPES and L-glutamine (Lonza, #BE12-719F) containing 10% FBS (recovery media) was added to quench Accumax digestion. The cells were subsequently centrifuged at 1,000 rpm for 5-min in 50 ml falcon tube and pellets are resuspended in 10 ml of recovery media. Cells are counted (CoulterZ2) and suspended at ˜0.1 million cells/ml and transferred to a 15 ml screw-cap tube for minimum 90 minutes at room temperature. Cells were then centrifuged for 60-s at 1,000 rpm. The pellet was gently resuspended in 1,000 μl extracellular solution and centrifuged a second time for 30-s at 1,000 rpm. Pellet was resuspended in 150 μL extracellular solution and immediately tested on the PatchXpress®. […]
After 10-s, the pressure was switched from +4 to −30 mmHg to attract suspended cells to each of the 16 holes (electrodes). […] The cell was allowed to dialyze for 5 min, during which the access resistance was monitored. […]

rat Nav1.7 channels = target: T2, rat Nav1.7 channels (Rattus norvegicus, UniProt O08562); assay: Automated Patch Clamp analysis of recombinant rat Nav1.7 channels expressed in HEK cells; format: cell-based; settings: recombinant rat Nav1.7 in HEK cells
T2 construct: expressed in transfected cells; host or cells: HEK cells
Text: Automated Patch Clamp analysis of recombinant rat Nav1.7 channels expressed in HEK cells. […] Data points represent the normalized peak current amplitudes after application of a repeated voltage step protocol (end point) in the presence of antibody.

[2] = system: cultured rat dorsal root ganglion (DRG) neurons; assay: Dorsal root ganglion in vitro current clamp electrophysiology; format: cell-based; settings: 25 μg/ml; for number of evoked action potentials: compared with vehicle or control antibody, administration at time=2 minutes
Method: Dorsal Root Ganglia were isolated from 1-2 wild-type rat pups, aged between postnatal day 1 and 3. Ganglia were washed in PBS after dissection and immediately placed into a DMEM (Lonza, #BE12-604F) solution containing 2 mg/ml collagenase (Sigma-Aldrich, #C2674) and incubated at 37° C. for approximately 45 minutes for enzymatic digestion. Collagenase solution was removed and replaced with DMEM supplemented with 10% Fetal Bovine Serum (Lonza, #DE14802F), 0.5 mM L-Glutamine (Lonza, #BE17-605E), 1% Penicillin/Streptomycin (Lonza, #BE17-603E) and 20 ng/ml nerve growth factor (NGF, Invitrogen). Ganglia were then mechanically triturated, centrifuged at 1000 g for 5 minutes, and resuspended in the same culture medium. Dissociated cells were counted and diluted to a suspension of 100,000-120,000 cells/ml on glass coverslips precoated with 50 μg/ml poly-D-lysine (Sigma) and 30 μg/ml laminin (Invitrogen) and incubated at 37° C., 5% CO2 until ready for use.
Dissociated DRG were taken for use no more than two days in vitro (DIV) following preparation. Cells were visualized on an Olympus BX50WI upright microscope with an Ikegami ICD-42B CCD camera. […] All recordings were acquired using pClamp 10 software (Molecular Devices) and subsequently analyzed in Clampfit 10 (Molecular Devices). […] The liquid junction potential was calculated to be 14.2 mV, all reported voltages have been corrected to compensate.
After formation of a tight seal (>1 GΩ) by release of positive pressure and manual suction in voltage clamp mode, capacitative currents were compensated and the command voltage was set to −70 mV. […] Whole cell parameters were recorded after dialysis. […] The amplifier was switched to current clamp mode and the resting membrane potential was recorded. […]
Cells were subsequently treated either with control or antibody solutions by fast bath perfusion directly on to the recorded cell for 90 seconds to sufficiently fill the recording chamber, at which point both perfusion and aspiration were halted. […]

Nav 1.7 peptide B11.7 = target: T3, Nav 1.7 peptide B11.7 (Homo sapiens, UniProt Q15858); assay: Peptide binding ELISA, cyclic Nav 1.7 peptide B11.7; settings: biotinylated cyclic peptide on streptavidin plate
T3 construct: host or cells: synthetic peptide captured on streptavidin plates
Method: (§1) Nunc 96 well plates were coated overnight at 4° C. in 5 ug/ml Streptavidin (Jackson 016-000-114) 100 ul/well in carbonate coating buffer. Plates were washed four times in PBS/tween and 200 ul/well of block (1% BSA in PBS) was added for 1 hour at RT. Plates were washed four times in PBS/tween and 100 ul/well of biotinylated peptide at 5 ug/ml was added for 1 hour at RT. Plates were washed four times in PBS/tween and 100 ul/well of antibody added (starting at 10 ug/ml diluting in block in half logs down the plate) for 1 hour at RT. Plates were washed four times in PBS/tween and […] goat anti rabbit Fc HRP (Jackson 111-036-046) added for 1 hour at RT. Plates were washed four times in PBS/tween and 100 ul/well TMB (3,3′,5,5′ Tetramethylbenzidine) solution added. 50 ul/well of NaF was added to stop reaction and absorbance read at 630 nm.

[3] = target: T4, Human domain B loop E1 peptide B11 (Nav 1.7) (Homo sapiens, UniProt Q15858); assay: Peptide binding ELISA, human B11 peptide
T4 construct: host or cells: synthetic peptide
Method: as §1

[4] = target: T5, Mouse domain B loop E1 peptide B11 (Nav 1.7) (Mus musculus, UniProt Q62205); assay: Peptide binding ELISA, mouse B11 peptide
T5 construct: host or cells: synthetic peptide
Method: as §1

T1 sequence (Q15858 whole entry): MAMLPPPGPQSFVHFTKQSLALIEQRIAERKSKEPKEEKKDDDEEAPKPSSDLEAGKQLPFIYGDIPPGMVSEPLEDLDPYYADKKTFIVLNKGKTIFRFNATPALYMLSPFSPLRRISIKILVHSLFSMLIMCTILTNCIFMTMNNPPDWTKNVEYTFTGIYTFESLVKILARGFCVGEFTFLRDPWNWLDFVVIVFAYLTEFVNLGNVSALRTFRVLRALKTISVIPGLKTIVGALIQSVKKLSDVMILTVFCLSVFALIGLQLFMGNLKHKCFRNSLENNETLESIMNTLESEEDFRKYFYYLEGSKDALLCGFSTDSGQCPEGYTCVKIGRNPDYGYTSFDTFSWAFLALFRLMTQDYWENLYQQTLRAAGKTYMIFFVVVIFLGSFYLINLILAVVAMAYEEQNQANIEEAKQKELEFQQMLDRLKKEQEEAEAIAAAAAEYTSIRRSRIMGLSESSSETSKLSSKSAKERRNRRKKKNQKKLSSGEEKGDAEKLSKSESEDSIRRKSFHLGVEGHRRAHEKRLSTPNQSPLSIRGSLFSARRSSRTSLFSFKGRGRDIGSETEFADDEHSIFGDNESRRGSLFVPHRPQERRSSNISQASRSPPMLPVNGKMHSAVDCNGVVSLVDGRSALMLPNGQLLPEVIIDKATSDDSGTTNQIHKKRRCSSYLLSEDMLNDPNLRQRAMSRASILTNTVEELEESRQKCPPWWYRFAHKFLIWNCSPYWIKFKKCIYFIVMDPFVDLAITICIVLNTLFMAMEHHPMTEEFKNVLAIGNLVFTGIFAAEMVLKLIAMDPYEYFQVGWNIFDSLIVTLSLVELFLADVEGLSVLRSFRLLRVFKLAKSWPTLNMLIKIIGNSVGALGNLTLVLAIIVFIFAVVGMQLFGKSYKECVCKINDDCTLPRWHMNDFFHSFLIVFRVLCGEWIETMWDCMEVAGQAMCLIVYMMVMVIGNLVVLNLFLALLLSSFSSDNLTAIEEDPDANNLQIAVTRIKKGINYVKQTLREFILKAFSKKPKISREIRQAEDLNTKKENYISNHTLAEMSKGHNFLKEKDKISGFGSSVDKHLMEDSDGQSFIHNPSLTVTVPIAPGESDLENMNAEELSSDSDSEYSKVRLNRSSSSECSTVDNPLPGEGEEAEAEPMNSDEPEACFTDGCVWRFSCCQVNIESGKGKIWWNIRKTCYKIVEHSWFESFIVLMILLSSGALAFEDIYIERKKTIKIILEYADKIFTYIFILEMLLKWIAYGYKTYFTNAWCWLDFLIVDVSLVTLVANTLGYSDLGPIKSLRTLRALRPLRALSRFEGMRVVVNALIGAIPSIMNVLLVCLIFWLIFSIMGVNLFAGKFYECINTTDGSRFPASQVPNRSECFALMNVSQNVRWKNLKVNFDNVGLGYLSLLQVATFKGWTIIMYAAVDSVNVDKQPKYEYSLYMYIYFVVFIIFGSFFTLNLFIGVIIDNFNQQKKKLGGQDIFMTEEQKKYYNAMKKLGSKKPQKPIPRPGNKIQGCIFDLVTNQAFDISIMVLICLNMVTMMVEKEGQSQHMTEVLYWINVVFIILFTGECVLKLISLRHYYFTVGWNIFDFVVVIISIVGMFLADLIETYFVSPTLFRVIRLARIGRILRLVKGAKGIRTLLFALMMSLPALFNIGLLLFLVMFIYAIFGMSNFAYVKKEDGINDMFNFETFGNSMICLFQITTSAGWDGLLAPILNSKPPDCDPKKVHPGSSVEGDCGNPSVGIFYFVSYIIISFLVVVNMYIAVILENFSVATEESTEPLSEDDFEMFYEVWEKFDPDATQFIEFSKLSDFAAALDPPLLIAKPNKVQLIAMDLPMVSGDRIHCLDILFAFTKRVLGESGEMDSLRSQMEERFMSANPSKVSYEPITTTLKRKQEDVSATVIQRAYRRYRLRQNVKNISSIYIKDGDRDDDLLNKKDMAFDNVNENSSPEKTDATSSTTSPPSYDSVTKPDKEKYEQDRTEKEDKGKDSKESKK
T2 sequence (O08562 whole entry): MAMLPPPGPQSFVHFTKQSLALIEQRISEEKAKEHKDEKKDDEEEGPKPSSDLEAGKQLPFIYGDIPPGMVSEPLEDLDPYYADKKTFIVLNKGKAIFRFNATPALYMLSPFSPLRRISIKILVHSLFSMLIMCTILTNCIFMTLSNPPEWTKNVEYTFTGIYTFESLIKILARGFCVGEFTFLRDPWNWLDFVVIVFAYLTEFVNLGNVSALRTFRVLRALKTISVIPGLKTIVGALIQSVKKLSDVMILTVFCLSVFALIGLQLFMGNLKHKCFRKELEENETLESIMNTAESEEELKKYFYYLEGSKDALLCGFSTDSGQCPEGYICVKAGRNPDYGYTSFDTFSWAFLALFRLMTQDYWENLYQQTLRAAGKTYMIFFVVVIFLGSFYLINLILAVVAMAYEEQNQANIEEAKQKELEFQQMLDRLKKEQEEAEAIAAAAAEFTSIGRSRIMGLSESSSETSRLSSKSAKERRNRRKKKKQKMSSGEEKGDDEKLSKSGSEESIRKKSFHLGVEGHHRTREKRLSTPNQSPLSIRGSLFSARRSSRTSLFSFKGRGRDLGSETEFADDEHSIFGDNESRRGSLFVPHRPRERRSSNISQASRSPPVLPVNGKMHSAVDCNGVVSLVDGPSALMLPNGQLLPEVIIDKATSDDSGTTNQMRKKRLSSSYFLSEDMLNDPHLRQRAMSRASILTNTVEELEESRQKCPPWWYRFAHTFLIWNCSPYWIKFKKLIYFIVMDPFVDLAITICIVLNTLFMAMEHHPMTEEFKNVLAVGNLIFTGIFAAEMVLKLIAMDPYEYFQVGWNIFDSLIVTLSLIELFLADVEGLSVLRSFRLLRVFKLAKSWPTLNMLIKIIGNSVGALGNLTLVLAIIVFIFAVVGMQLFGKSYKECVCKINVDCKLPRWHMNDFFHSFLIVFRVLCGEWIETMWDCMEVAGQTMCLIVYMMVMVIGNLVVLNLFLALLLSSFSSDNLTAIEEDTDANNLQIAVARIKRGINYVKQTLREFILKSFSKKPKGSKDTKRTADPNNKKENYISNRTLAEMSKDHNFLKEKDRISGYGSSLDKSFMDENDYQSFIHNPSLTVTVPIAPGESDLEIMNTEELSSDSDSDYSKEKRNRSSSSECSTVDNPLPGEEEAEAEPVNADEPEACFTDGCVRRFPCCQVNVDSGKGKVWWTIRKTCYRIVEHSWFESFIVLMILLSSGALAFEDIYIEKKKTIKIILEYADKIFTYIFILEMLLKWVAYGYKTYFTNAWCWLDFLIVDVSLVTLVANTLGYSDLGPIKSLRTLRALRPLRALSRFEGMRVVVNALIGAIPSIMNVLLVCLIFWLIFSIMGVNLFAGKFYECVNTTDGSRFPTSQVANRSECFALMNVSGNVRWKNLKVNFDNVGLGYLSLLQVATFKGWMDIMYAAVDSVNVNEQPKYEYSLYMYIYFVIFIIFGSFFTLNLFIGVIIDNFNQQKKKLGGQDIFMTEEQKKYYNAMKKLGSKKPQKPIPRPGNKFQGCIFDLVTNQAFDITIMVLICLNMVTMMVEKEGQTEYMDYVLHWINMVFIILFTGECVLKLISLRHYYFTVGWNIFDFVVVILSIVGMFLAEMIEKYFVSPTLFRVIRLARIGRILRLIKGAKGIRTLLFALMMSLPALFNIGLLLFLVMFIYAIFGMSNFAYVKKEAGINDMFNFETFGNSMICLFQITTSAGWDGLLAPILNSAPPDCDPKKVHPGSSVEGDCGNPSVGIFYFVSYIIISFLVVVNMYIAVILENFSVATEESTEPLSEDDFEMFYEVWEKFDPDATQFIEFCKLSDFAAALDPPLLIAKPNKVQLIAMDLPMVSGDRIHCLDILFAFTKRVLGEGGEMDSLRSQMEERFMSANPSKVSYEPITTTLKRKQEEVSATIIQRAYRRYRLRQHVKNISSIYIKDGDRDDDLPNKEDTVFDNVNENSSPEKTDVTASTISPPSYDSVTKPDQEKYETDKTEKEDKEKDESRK

Molecule | pain reduction [1] [%] | human Nav1.7 current when stimulated only at the end of the protocol (human Nav1.7 channel; 25 μg/ml, stimulation only at end, after incubation of antibody) | human Nav1.7 currents under repeated activation (human Nav1.7 channel; 25 μg/ml, voltage step protocol at 0.1 Hz for ~20 minutes) | dose dependence of inhibition of human Nav1.7 currents (human Nav1.7 channel) | dose dependence of inhibition of rat Nav1.7 currents (rat Nav1.7 channels; repeated voltage step protocol, end point) | number of evoked action potentials [2] | ELISA binding to Nav 1.7 peptide (B11.7) (Nav 1.7 peptide B11.7) | ELISA binding to Human domain B loop E1 peptide B11 [3] | ELISA binding to Mouse domain B loop E1 peptide B11 [4] | inhibition of rat Nav1.7 currents (rat Nav1.7 channels; 25 μg/ml) [%] | electrically induced spike frequency of DRG neurons ([2]; normalized to frequency at time 0)
NCC1(CC(=O)O)CCCCC1 [gabapentin] | ≤ 50 |  |  |  |  |  |  |  |  |  | 
CA167_00983: rabbit anti-Nav1.7 monoclonal antibody, B11-specific; VH SEQ ID NO:148, VL SEQ ID NO:147 (antibody, V domains shown, derived from rabbit) VH: QSVEESGGRLVTPGTPLTLTCTVSGFSLSNYAMSWVRQAPGKGLEWIGIIGKSGSTAYASWAKGRFTISRTSTTVDLEITSPTTEDTATYFCVRFVLLWGPGTLVTVS VL: AQVLTQTASPVSAAVGGTVTINCQSSQSVYKNNDLAWYQQKPGQPPKLLIYYASTLASGVSSRFKGSGSGTEFTLTISDAQCDDAATYYCLGSYDCSSADCNAFGGGTKVVVK |  | does not produce an inhibition of the Nav1.7 current | reduced in the presence of the antibody (25 μg/ml) but only when repeated activation of the channel at 0.1 Hz is maintained | dose-dependent inhibition | dose-dependent inhibition | significantly reduced | specific binding | binding | binding |  | 
CA167_01080: rabbit anti-Nav1.7 monoclonal antibody, B11-specific; VH SEQ ID NO:176, VL SEQ ID NO:175 (antibody, V domains shown, derived from rabbit) VH: QSLEESGGRLVTPETPLTLTCTASGIDLSKWPMTWVRQAPGKGLEWIGIIGRSGSTNYASWAKGRFTISKTSTTVDLKMTSPTTEDTATYFCARGGSYYDLWGQGTLVTVS VL: AQVLTQTASPVSAAVGNTVTITCQSSQSVWKNNDLSWYQQKLGQPPKLLIYYASTLASGVSSRFKASGSGTQFTLTISDVQCDDAGTYYCVGSYDCSSADCNAFGGGTKVVVK |  |  |  | dose-dependent inhibition |  |  | specific binding | binding | binding | ~26 | reduces
CA167_00932: rabbit anti-Nav1.7 monoclonal antibody, A32-specific; VH SEQ ID NO:140, VL SEQ ID NO:139 (antibody, V domains shown, derived from rabbit) VH: QSLEESGGRLVTPGTPLTLTCTVSGFSLSRYWMSWVRQAPGKGLEWIGNIGGGSGSTLYAPWAKGRSTISKTSTTVDLKITSPTTEDTATYFCGRYVKNGGGYRLDLWGPGTLVTVS VL: AAVLTQTPSSVSAAVGGTVTIKCQSSQSVYNNNEFSWYQQKPGQPPKLLIYDASKLASGVPSRFSGSGSGTQFTLTISGVQCDDVATYYCLGGYNDDTNRWAFGGGTEVVVE |  |  |  |  |  | significantly reduced |  |  |  |  | 
